Laboratory results as given in patent US20230406927A1 (REGENTS OF THE UNIVERSITY OF MINNESOTA, published 2023).

B1: anti-CD3-1DD fusion protein (VHH)
chain: MGHHHHHHEVQLLEEVQLVESGGGLVQPGGSLRLSCAASGFTFDDYGMSWVRQAPGKWLEWVSDISWNGGSTYYADSVKGRFTISRDNAENTLYLQMNSLKPDDTAVYYCAKMGEGGWGANDYWGQGTQVTVSSGGGASGGGGSGGGGSGISLIAALAVDRVIGMENAMPWNLPADLAWFKRNTLNKPVIMGRHTWESIGRPLPGRKNIILSSQPGTDDRVTWVKSVDEAIAAAGDVPEIMVIGGGRVYEQFLPKAQKLYLTHIDAEVEGDTHFPDYEPDDWESVFSEFHDADAQNSHSYSFEILERRGGISLIAALAVDRVIGMENAMPWNLPADLAWFKRNTLNKPVIMGRHTWESIGRPLPGRKNIILSSQPGTDDRVTWVKSVDEAIAAAGDVPEIMVIGGGRVYEQFLPKAQKLYLTHIDAEVEGDTHFPDYEPDDWESVFSEFHDADAQNSHSYSFEILERRGGGLKDYKDDDDK
notes: Anti-CD3 nanobody fused to an E. coli DHFR dimer (1DD); also called αCD3-1DD; anti-CD3-DHFR2 fusion protein
B2: hHINT1-anti-CD3-1DD fusion protein (VHH)
chain: MGHHHHHHMADEIAKAQVARPGGDTIFGKIIRKEIPAKIIFEDDRSLAFHDISPQAPTHFLVIPKKHISQISVAEDDDESLLGHLMIVGKKSAADLGLNKGYRMEVNEGSDGGQSVYHVHLHVLGGRQMHWPPGGGSGGGPLGVRGSGGELEVQLLEEVQLVESGGGLVQPGGSLRLSCAASGFTFDDYGMSWVRQAPGKWLEWVSDISWNGGSTYYADSVKGRFTISRDNAENTLYLQMNSLKPDDTAVYYCAKMGEGGWGANDYWGQGTQVTVSSGGGASGGGGSGGGGSGISLIAALAVDRVIGMENAMPWNLPADLAWFKRNTLNKPVIMGRHTWESIGRPLPGRKNIILSSQPGTDDRVTWVKSVDEAIAAAGDVPEIMVIGGGRVYEQFLPKAQKLYLTHIDAEVEGDTHFPDYEPDDWESVFSEFHDADAQNSHSYSFEILERRGGISLIAALAVDRVIGMENAMPWNLPADLAWFKRNTLNKPVIMGRHTWESIGRPLPGRKNIILSSQPGTDDRVTWVKSVDEAIAAAGDVPEIMVIGGGRVYEQFLPKAQKLYLTHIDAEVEGDTHFPDYEPDDWESVFSEFHDADAQNSHSYSFEILERRGGGLKDYKDDDDK
notes: Masked form; also called hHINT1-αCD3-1DD; HINT1-αCD3-1DD

Assays:
[1] = target: T1, CD3ε receptor on the surface of T cells (human, UniProt P07766 23-207); experiment: dose-dependent titration by flow cytometry on T cells isolated from healthy donor blood; apparent KD
T1 construct: whole, on cells; The target stood on primary T cells, where CD3ε is part of the TCR/CD3 complex; also called human CD3ε; CD3 epsilon chain
Protocol: (§1) The apparent affinity of the fusion proteins was determined using flow cytometry with T cells isolated from healthy donor blood.

[2] = target: T1, CD3ε receptor on the surface of T cells; experiment: ratio of apparent KD values from the flow cytometry titration on T cells; reference is unmasked anti-CD3-1DD
Protocol: as §1

T1 sequence (P07766 23-207): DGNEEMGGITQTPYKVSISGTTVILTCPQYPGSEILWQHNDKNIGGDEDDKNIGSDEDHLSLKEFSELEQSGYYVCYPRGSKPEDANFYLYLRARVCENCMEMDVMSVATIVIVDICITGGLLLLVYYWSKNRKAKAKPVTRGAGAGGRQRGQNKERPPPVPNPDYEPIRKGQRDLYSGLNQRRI

Binder | Kd [1] | fold reduction of binding affinity against anti-CD3-1DD [2]
B1 | 100 nM | –
B2 | > 4000 nM | ~40 fold
